Measured values published in the supplement of paper PMC12042874.
± gives the uncertainty stated by the source.

assay: amyloid nucleation score (Sup35N fusion, yeast selection) (log enrichment); library NNK1; higher = more nucleation; inactive = no reads after selection
Method in brief: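 The nucleation score is the log enrichment of output over input reads, calculated with DiMSum and centred on the mode score of non-aggregating sequences. Sequences with under 100 input reads were excluded. Reads came from Illumina sequencing of plasmid inserts from psi-negative yeast expressing Sup35N fused to peptides of 20 random codons, induced 24 hours with 100 μM copper sulfate and grown 7 days at 30°C without adenine and uracil.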

Substance | amyloid nucleation score
FVSVWDILL | -0.049 ± 0.27
FVVIEILDFSPFDHCFIILE | 1.26 ± 0.48
FVVLSRFACRLRLTR | 0.853 ± 0.55
FWANH | inactive
FWLCRYTIGSRLLFVVQTST | 0.986 ± 0.65
FWNMWAYEMRFVLRNYAL | -0.908 ± 0.43
FWSHHPHTNENMCTYTNLSW | inactive
FWSMIGLWILDC | 0.031 ± 0.25
FWSWSV | -0.222 ± 0.42
FWVAIRVRVIWVNKKNDGCI | -0.147 ± 0.66
FWVQNMVGNFFNYYFDRGNQ | 7.791 ± 0.045
FYARMLYYA | inactive
FYFRNSSGF | 2.49 ± 0.58
FYGEGNFRGKTYVFTVPVVK | -1.21 ± 2.4
FYGVRVTGAAFRALVMVSPR | 0.616 ± 1.1
FYIVFFTCLASSS | 1.94 ± 0.29
FYKLVSLREIGMIQVIRGLD | -0.395 ± 0.47
FYKQLYSAEHKKFSCTAFVK | inactive
FYLGPCYAVIWVNFQLPLGV | 0.596 ± 0.33
FYMRSFLFDFQLFHVVGIWF | -0.929 ± 0.39
FYQLYLINSTCHGRSRYILS | 0.155 ± 0.51
FYVPDWYNCSCIIWGRDACA | 4.19 ± 0.056
FYYGSLPYCVTKRFRDFGNQ | 3.02 ± 0.18
FYYVRLDARMVDSSSFV | -0.542 ± 0.28
FYYYSEFLGPIVYPQHDLLL | -0.1 ± 1.1

Substance | amyloid nucleation score
GAFWGFFFKCLSTTLNNSWL | inactive
GAIDRGCVDLARTCSLGLTG | 0.508 ± 0.56
GAKYMNMRIRRTSFGSAYQS | 0.335 ± 0.48
GALSNSSMWFGMYVNPLGTY | inactive
GALVYAFYAAS | 0.525 ± 0.89
GASCTLISCLLLLHSAWSLS | 0.237 ± 0.59
GAVIVCVYMQALVVIDRASA | -0.62 ± 0.94
GCEFWSYTLTLRGKNACNKL | -0.234 ± 0.42
GCFASTSNTRC | 1.05 ± 0.66
GCFSPITQWSMWHVWRVRRQ | 0.49 ± 0.97
GCGMDGWDVQ | 0.103 ± 0.25
GCLRVSDTIRGMPRQSLDWA | 0.445 ± 0.28
GCVLFDLSHL | -1.92 ± 2.4
GCVTYIYGCMLYCEEAFR | 5.17 ± 0.085
GCYSQNICCVTCIKRRSIVS | -1.02 ± 0.69
GDANLGKQLWRGWNVG | 0.228 ± 1.2
GDELKRVWYLGTLSRMRGTE | -0.574 ± 0.62
GDIVQLGPKFCKLYLCIWNC | 6.369 ± 0.056
GDSWRSYLRILGTYMVRRWC | 0.244 ± 0.54
GDVPYRNMHCPRFLMREMVV | 0.354 ± 0.25
GDVSRQTVEV | -0.094 ± 0.43
GEERFYSLKYCCKGRLWRPG | 0.179 ± 0.43
GEHSLSIICCVLCTVGDGPN | 7.611 ± 0.058
GEIGKKNY | 1.2 ± 0.35
GFALECESEVWSCYYTIRII | 0.444 ± 0.43

Substance | amyloid nucleation score
GFKRRYCDNISAIHPDSGCK | inactive
GFLSATWCSQWSIILVKERG | 1.48 ± 0.45
GFLTETDNCTICIFHMFVDN | 6.201 ± 0.059
GFNIDT | 0.689 ± 1.2
GFRLMLFVRTM | 1.04 ± 0.45
GFRPEMHGV | inactive
GFTTMEDCGPREGPTIVDDK | -0.149 ± 1.3
GFVEVNTCLKEVSLPSNMPS | 0.714 ± 0.5
GFVTWPLSRSPGSPGCAALM | 0.015 ± 0.39
GFWAKSPLAGHSYKGYQLWA | 1.62 ± 0.57
GFWDFWVGRCLSSYVQFANL | 0.28 ± 0.48
GGCMV | 0.493 ± 0.42
GGIGDQVITRNVGRPREYQR | 1.34 ± 0.76
GGLGTPFFHAPSHMWVKW | -0.551 ± 0.55
GGRKKQLLDNYKGTYLVARI | -0.096 ± 1.1
GGRLEKRTCASCTSGQVVGV | 0.294 ± 0.42
GGRLNQHLRSNNTGTHHPGY | -0.533 ± 0.31
GGRLTRQRIVSVLLYVGVAG | 0.077 ± 0.69
GGWGRGECPYSHTKWYVKSG | -0.999 ± 0.94
GHFRSASRKYALTV | -0.619 ± 0.51
GHLWWSVLLVPLFTVGSTSV | 0.399 ± 0.56
GHSRSSGLLKKFCVKSRQDA | 0.234 ± 0.66
GIEKLHDRITSLIFLSMGRR | 1.8 ± 0.19
GILVCLNYLGLFVVYHGFVW | 1.33 ± 0.56
GIMTHVGRPKVTGCGRGKCT | -0.165 ± 1.6

Substance | amyloid nucleation score
GISCFHW | 1.98 ± 0.18
GISSVG | 0.677 ± 0.4
GIWSNCKYVFSGIMSSYMVS | 0.739 ± 0.16
GKCFVVMWRVLGVDSVLMEV | -0.414 ± 0.25
GKCVTWQASCLQCSKSNWYQ | 0.995 ± 0.81
GKFLRGGHLVFRWATLYLSV | -0.604 ± 0.97
GKGWYTDSMCRIRMMNARLL | 0.233 ± 0.34
GKIYWLLLQTDKDRRFLTMR | -0.744 ± 0.46
GKLPYVFRDCNKTVLVMALF | 0.947 ± 0.73
GKMMVFRVFFRFVPSESWVI | -0.638 ± 0.52
GKPDKVHARGWFTLVNRWLR | 0.399 ± 0.73
GKRIYPWVLNRSH | -0.209 ± 0.28
GKSNLARHAPNLEVTMRGTE | 1.27 ± 0.42
GKSRS | 0.784 ± 0.49
GKSWFGYCVSLVCMSWVLSD | 0.67 ± 1.2
GKVFVVSVKCNEVVDFGWCQ | 0.073 ± 0.28
GKYFLSICHDT | 0.033 ± 0.36
GLCDNHINVVVVS | 0.788 ± 0.81
GLFNSDRVNQWPPGPCRDYV | 0.5 ± 0.28
GLFYW | 1.06 ± 0.72
GLHKYPCYPTNSRYVVVINM | 3.27 ± 0.066
GLMGLFVKWYNVVQIFQSRM | -0.437 ± 0.61
GLMNLVSDRMSWLNEV | 0.485 ± 0.84
GLRWYQFEPTQG | 0.126 ± 0.38
GLSGTSALPPGIS | 0.318 ± 0.79

Substance | amyloid nucleation score
GLSLIA | 0.983 ± 0.76
GLSQKVGKPAAALLRTMVSD | -0.309 ± 0.27
GLTPMRHN | -1.01 ± 1.1
GLTRFGGPSTMIFMDL | -0.201 ± 0.8
GLWMWEEVILISTLKLFVLV | 0.139 ± 0.6
GLYKYYRSLILSLVSFNFS | 1.18 ± 0.16
GLYLDFGYSGCYGKKL | 5.67 ± 0.082
GMAVFV | 0.18 ± 1.1
GMEFMIMGNLVITGVIDKCH | -0.262 ± 0.39
GMGGGICSSEKMRCGNVEGV | -0.857 ± 0.34
GMYRVNSWIMSL | inactive
GNALYICRF | 0.572 ± 0.39
GNANVKCGVRAISDNRARRI | 0.003 ± 0.43
GNDNCVRHGGRSSSRCLMKL | inactive
GNFKAMWFYPYRRCWQCT | -0.944 ± 1.1
GNGHWQQVG | 0.001 ± 0.33
GNLFITACFHAFVIWFHNGN | inactive
GNSSNAMKFEIHISSDHVAY | 0.845 ± 0.14
GNTSMILSPA | -0.511 ± 1.1
GNVAWYTSIGCGGMILWADF | -0.124 ± 0.76
GPCNTRSCV | -0.037 ± 0.43
GPPSLYTWTAYCELSRRPEG | 0.515 ± 0.66
GPPSWSELDFHYCVGGWFYP | -0.456 ± 0.56
GPSVPLGVFEKKTAFLKKTL | -0.328 ± 0.79
GQAWKDAVQNYDMLAYMLKG | -0.375 ± 0.54

Substance | amyloid nucleation score
GQEVHISIVNVLQFEYNRYD | 6.074 ± 0.05
GQFEFCMFAQYGAS | -1.14 ± 2.4
GQIGACVPLIGVAMGYLS | -0.418 ± 1.5
GQLLCWVASNYEGFNWVYKI | -0.161 ± 0.53
GQMGPMKREDGVLFVVTREN | -0.255 ± 1.1
GRAYGSVCILRLGC | 0.835 ± 0.63
GRDRSWDIRWLYTLTEPTWH | -1.62 ± 2.7
GREVGYVKLMDRPWPYRPAE | 0.191 ± 0.44
GRFKWCGCNNTLWVGISRN | 1.9 ± 0.15
GRGLADISYVYRDVWICLAI | 0.83 ± 0.43
GRHRMVWGH | 0.345 ± 0.93
GRLHRRDMIGRHVDDSGPMS | inactive
GRLIGDSWLGYTKSGPGRKR | inactive
GRLTLSRGRCCQGSLNTVYP | 0.007 ± 0.75
GRPLCSRPMILHMHNITLRM | 1.05 ± 0.97
GRSAVAFISPPLSLRIAQCP | 0.252 ± 0.28
GRSCFGEHILNTPAISCNIT | -0.288 ± 0.35
GRSSTRRNLIVDQSSVSERC | -0.009 ± 0.53
GRSTNSSDISNHMRNS | 0.961 ± 0.31
GRTFVHSLWACNNSYCSL | 6.85 ± 0.088
GRTLVLDFTHHPPILRVPLR | 0 ± 0.48
GRVFAVSYFVRAGLVNEG | 0.082 ± 0.7
GRVFSFMIGFFVALTERTRA | -0.037 ± 1.7
GRVQGNFLINRVCRWWGVAG | 0.182 ± 0.56
GSADMRLDLQVVGCMTCRFE | 0.386 ± 1.1

Substance | amyloid nucleation score
GSADSFRGYGCFILVKATWY | 0.717 ± 0.46
GSATRTPVITQRICLPVGCR | -0.691 ± 0.56
GSCFLCKI | 0.686 ± 0.53
GSCLFVRGSFVDVGRLFESV | 0.643 ± 0.67
GSDCSKAAFDPPFRSYDNAT | 0.429 ± 0.33
GSDNLDFRCNWVYN | 0.616 ± 0.69
GSHIVLSSFFGMLMLWGVDP | 0.56 ± 0.39
GSHNAR | 0.086 ± 0.97
GSHYP | 0.586 ± 0.56
GSIIMWHYGYYHGCNFYCCH | 6.98 ± 0.07
GSLSVAATSFTVMYRVKLVF | 0.085 ± 0.58
GSMEHCNRNRFFFMGERLLR | -1.1 ± 2.7
GSPMFLRIYLETYLPTYELS | 0.739 ± 0.42
GSTCIRTGSVIVGRL | 0.301 ± 0.28
GSTNERYAKNGTS | 0.32 ± 0.68
GSVCHILVGWVAYMWVF | -1.18 ± 1.2
GSVINGWRRYLFVISILLGL | -0.374 ± 0.32
GSWCSRIK | 0.958 ± 0.35
GSYFGKGSVK | 0.563 ± 0.97
GSYLCLMTFFSLYEQHSCCC | inactive
